Results: doi:10.1101/2024.11.29.625639

Target: HCMV gHgLgO trimer with gO249 mutant, from virions (human cytomegalovirus, strain TB40/E (TB40-BAC4))
Experiment: co-IP + pull-down

Substance “HCMV glycoprotein gB, from virions (natural protein)” has a fold change of the interaction with gB against gHgLgOWT of 4 fold.
